Measurements from patent publication US20180022800A1.

Molecular target: recombinant mouse OSM (mouse) (UniProt P53347)
Assay: cell-based or functional assay

Chain of UniProt P53347 (P53347 24-206 limits assumed): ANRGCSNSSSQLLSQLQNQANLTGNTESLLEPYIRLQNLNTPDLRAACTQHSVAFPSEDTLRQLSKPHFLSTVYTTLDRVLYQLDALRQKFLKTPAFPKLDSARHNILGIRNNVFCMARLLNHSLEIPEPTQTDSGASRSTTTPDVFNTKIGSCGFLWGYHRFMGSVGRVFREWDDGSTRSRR

molar ratio of neutralizing agent required for 50% neutralization (SOCS3 expression in mouse colonic fibroblasts treated with 10 ng/ml recombinant mouse OSM, 2 hours) (molar ratio (neutralizing agent:OSM)): 1.7
Substance: O-RFP (recombinant murine OSM receptor fusion protein) (from UniProt O70458 24-426; Q00560 123-322) (Fc fusion)
